Data as given in publication PMC11187563, “The importance of tyrosines in multimers of cyclic RGD nonapeptides: towards αvβ6-integrin targeted radiotherapeutics” (RSC Medicinal Chemistry, 2024).
Like-named read-outs stand apart in the source and are kept apart here.

What was measured:
[1] = Ex vivo biodistribution of 177Lu-labeled peptide tetramers in H2009 xenografted SCID mice; details: CB17 SCID, mouse, iv, total radioactivity; for tissue uptake at 1.5 h / tissue to tissue ratio at 1.5 h: 90 min p.i.; for tissue uptake at 24 h / tissue to tissue ratio at 24 h: 154 pmol, 24 h p.i.; for tissue uptake at 72 h / tissue to tissue ratio at 72 h: 199 pmol, 3 d p.i.
Summary of the method: (§1)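 SCID mice carried subcutaneous H2009 xenografts on the right shoulder. 177Lu-labeled conjugates were injected i.v., and ex vivo organ distribution was measured at two time points post-injection.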

[2] = tested on: αvβ6-integrin expressing human lung adenocarcinoma cell line H2009 xenografts; experiment: as above; details: H2009 bearing SCID mice
Summary of the method: as §1

[3] = spleen, H2009 bearing SCID mice, read-out: Spleen %IA/g
[4] = stomach (empty), H2009 bearing SCID mice, read-out: Stomach (empty) %IA/g
[5] = tumor/pancreas, H2009 bearing SCID mice, read-out: tumor/organ ratio, Pancreas

## CC(C)C[C@@H]1NC(=O)[C@H](CC(=O)O)NC(=O)CNC(=O)[C@H](CCCNC(=N)N)NC(=O)[C@H](Cc2ccc(O)cc2)NC(=O)[C@H](CCCCNC(=O)CCc2cn(CCCNC(=O)CCP(=O)(O)CN3CCN(CP(=O)(O)CCC(=O)NCCCn4cc(CCC(=O)NCCCC[C@H]5C(=O)N[C@@H](Cc6ccc(O)cc6)C(=O)N[C@@H](CCCNC(=N)N)C(=O)NCC(=O)N[C@@H](CC(=O)O)C(=O)N[C@@H](CC(C)C)C(=O)N[C@@H](C)C(=O)N[C@@H](Cc6ccc(O)cc6)C(=O)N6CCC[C@@H]6C(=O)N5C)nn4)CCN(CP(=O)(O)CCC(=O)NCCCn4cc(CCC(=O)NCCCC[C@H]5C(=O)N[C@@H](Cc6ccc(O)cc6)C(=O)N[C@@H](CCCNC(=N)N)C(=O)NCC(=O)N[C@@H](CC(=O)O)C(=O)N[C@@H](CC(C)C)C(=O)N[C@@H](C)C(=O)N[C@@H](Cc6ccc(O)cc6)C(=O)N6CCC[C@@H]6C(=O)N5C)nn4)CCN(CP(=O)(O)CCC(=O)NCCCn4cc(CCC(=O)NCCCC[C@H]5C(=O)N[C@@H](Cc6ccc(O)cc6)C(=O)N[C@@H](CCCNC(=N)N)C(=O)NCC(=O)N[C@@H](CC(=O)O)C(=O)N[C@@H](CC(C)C)C(=O)N[C@@H](C)C(=O)N[C@@H](Cc6ccc(O)cc6)C(=O)N6CCC[C@@H]6C(=O)N5C)nn4)CC3)nn2)N(C)C(=O)[C@H]2CCCN2C(=O)[C@H](Cc2ccc(O)cc2)NC(=O)[C@H](C)NC1=O [Compound 177Lu-Y8, metal not drawn]
[1]; small intestine (empty), + 50 nmol non-labeled compound 10 min prior to activity, n = 2, read-out: Small intestine (empty) %IA/g, + 50 nmol cold
  tissue uptake at 1.5 h: 0.62 %ID/g
[1]; spleen, 124 pmol, H2009 bearing SCID mice, read-out: Spleen %IA/g
  tissue uptake at 1.5 h: 8.41 %ID/g
[1]; [3]
  tissue uptake at 24 h: 1.89 %ID/g
  tissue uptake at 72 h: 2.01 %ID/g
[1]; spleen, + 50 nmol non-labeled compound 10 min prior to activity, n = 2, read-out: Spleen %IA/g, + 50 nmol cold
  tissue uptake at 1.5 h: 4.99 %ID/g
[1]; stomach (empty), 124 pmol, H2009 bearing SCID mice, read-out: Stomach (empty) %IA/g
  tissue uptake at 1.5 h: 8.26 %ID/g
[1]; [4]
  tissue uptake at 24 h: 3.84 %ID/g
  tissue uptake at 72 h: 2.65 %ID/g
[1]; stomach (empty), + 50 nmol non-labeled compound 10 min prior to activity, n = 2, read-out: Stomach (empty) %IA/g, + 50 nmol cold
  tissue uptake at 1.5 h: 1.19 %ID/g
[1]; tumor (H2009 xenograft), H2009 bearing SCID mice, read-out: Tumor H2009 %IA/g
  tissue uptake at 24 h: 2.42 %ID/g
[1]; tumor (H2009 xenograft), + 50 nmol non-labeled compound 10 min prior to activity, n = 2, read-out: Tumor H2009 %IA/g, + 50 nmol cold
  tissue uptake at 1.5 h: 1.71 %ID/g
[1]; tumor / adrenals, H2009 bearing SCID mice, read-out: tumor/organ ratio, Adrenals
  tissue to tissue ratio at 72 h: 4.5
[1]; tumor / blood, H2009 bearing SCID mice, read-out: tumor/organ ratio, Blood
  tissue to tissue ratio at 24 h: 59.6
[1]; tumor / bone, H2009 bearing SCID mice, read-out: tumor/organ ratio, Bone
  tissue to tissue ratio at 72 h: 3.4
[1]; tumor / heart (myocard), H2009 bearing SCID mice, read-out: tumor/organ ratio, Heart (myocard)
  tissue to tissue ratio at 24 h: 15.2
[1]; tumor / large intestine (empty), H2009 bearing SCID mice, read-out: tumor/organ ratio, Large intestine (empty)
  tissue to tissue ratio at 72 h: 3.6
[1]; tumor / liver, H2009 bearing SCID mice, read-out: tumor/organ ratio, Liver
  tissue to tissue ratio at 24 h: 2.7
[1]; tumor / lung, H2009 bearing SCID mice, read-out: tumor/organ ratio, Lung
  tissue to tissue ratio at 24 h: 2.1
[1]; tumor / muscle, H2009 bearing SCID mice, read-out: tumor/organ ratio, Muscle
  tissue to tissue ratio at 72 h: 8.4
[1]; tumor / small intestine (empty), H2009 bearing SCID mice, read-out: tumor/organ ratio, Small intestine (empty)
  tissue to tissue ratio at 72 h: 11.4
[1]; tumor / spleen, H2009 bearing SCID mice, read-out: tumor/organ ratio, Spleen
  tissue to tissue ratio at 24 h: 1.4
[1]; tumor / stomach (empty), H2009 bearing SCID mice, read-out: tumor/organ ratio, Stomach (empty)
  tissue to tissue ratio at 72 h: 0.8
[1]; tumor/adrenals, 124 pmol, H2009 bearing SCID mice, read-out: tumor/organ ratio, Adrenals
  tissue to tissue ratio at 1.5 h: 8.9
[1]; tumor/adrenals, H2009 bearing SCID mice, read-out: tumor/organ ratio, Adrenals
  tissue to tissue ratio at 24 h: 10.2
[1]; tumor/blood, 124 pmol, H2009 bearing SCID mice, read-out: tumor/organ ratio, Blood
  tissue to tissue ratio at 1.5 h: 2.4
[1]; tumor/blood, H2009 bearing SCID mice, read-out: tumor/organ ratio, Blood
  tissue to tissue ratio at 72 h: 67
[1]; tumor/bone, 124 pmol, H2009 bearing SCID mice, read-out: tumor/organ ratio, Bone
  tissue to tissue ratio at 1.5 h: 1.8
[1]; tumor/bone, H2009 bearing SCID mice, read-out: tumor/organ ratio, Bone
  tissue to tissue ratio at 24 h: 3.6
[1]; tumor/heart (myocard), 124 pmol, H2009 bearing SCID mice, read-out: tumor/organ ratio, Heart (myocard)
  tissue to tissue ratio at 1.5 h: 5.9
[1]; tumor/heart (myocard), H2009 bearing SCID mice, read-out: tumor/organ ratio, Heart (myocard)
  tissue to tissue ratio at 72 h: 12.2
[1]; tumor/large intestine (empty), 124 pmol, H2009 bearing SCID mice, read-out: tumor/organ ratio, Large intestine (empty)
  tissue to tissue ratio at 1.5 h: 1.8
[1]; tumor/large intestine (empty), H2009 bearing SCID mice, read-out: tumor/organ ratio, Large intestine (empty)
  tissue to tissue ratio at 24 h: 1.8
[1]; tumor/liver, 124 pmol, H2009 bearing SCID mice, read-out: tumor/organ ratio, Liver
  tissue to tissue ratio at 1.5 h: 5.1
[1]; tumor/liver, H2009 bearing SCID mice, read-out: tumor/organ ratio, Liver
  tissue to tissue ratio at 72 h: 2.4
[1]; tumor/lung, 124 pmol, H2009 bearing SCID mice, read-out: tumor/organ ratio, Lung
  tissue to tissue ratio at 1.5 h: 1
[1]; tumor/lung, H2009 bearing SCID mice, read-out: tumor/organ ratio, Lung
  tissue to tissue ratio at 72 h: 2.2
[1]; tumor/muscle, 124 pmol, H2009 bearing SCID mice, read-out: tumor/organ ratio, Muscle
  tissue to tissue ratio at 1.5 h: 7.4
[1]; tumor/muscle, H2009 bearing SCID mice, read-out: tumor/organ ratio, Muscle
  tissue to tissue ratio at 24 h: 9.5
[1]; tumor/pancreas, 124 pmol, H2009 bearing SCID mice, read-out: tumor/organ ratio, Pancreas
  tissue to tissue ratio at 1.5 h: 14.3
[1]; [5]
  tissue to tissue ratio at 24 h: 18.4
  tissue to tissue ratio at 72 h: 14.9
[1]; tumor/small intestine (empty), 124 pmol, H2009 bearing SCID mice, read-out: tumor/organ ratio, Small intestine (empty)
  tissue to tissue ratio at 1.5 h: 2.1
[1]; tumor/small intestine (empty), H2009 bearing SCID mice, read-out: tumor/organ ratio, Small intestine (empty)
  tissue to tissue ratio at 24 h: 2.5
[1]; tumor/spleen, 124 pmol, H2009 bearing SCID mice, read-out: tumor/organ ratio, Spleen
  tissue to tissue ratio at 1.5 h: 0.7
[1]; tumor/spleen, H2009 bearing SCID mice, read-out: tumor/organ ratio, Spleen
  tissue to tissue ratio at 72 h: 1
[1]; tumor/stomach (empty), 124 pmol, H2009 bearing SCID mice, read-out: tumor/organ ratio, Stomach (empty)
  tissue to tissue ratio at 1.5 h: 0.7
[1]; tumor/stomach (empty), H2009 bearing SCID mice, read-out: tumor/organ ratio, Stomach (empty)
  tissue to tissue ratio at 24 h: 0.7
[2]; 90 min p.i.
  tumor/organ ratio, Kidneys: 0.0
[2]; 24 h p.i.
  tumor/organ ratio, Kidneys: 0.0
[2]; 3 d p.i.
  tumor/organ ratio, Kidneys: 0.0
